In patent WO2016059602A2 (dated 2016):

Experiments:
human HER3 receptor = human HER3 receptor (human, UniProt P21860 20-1342); assay: cell-based or functional assay
[1] = target: T1, full-length rat HER3 extracellular domain (ECD) (rat, UniProt Q62799 20-643); assay: BIACORE, antibody captured on protein A, rat HER3 ECD as analyte, 25 C, 1:1 model
T1 construct: extracellular domain; also called Rat HER3 ECD

[2] = target: T2, full-length human HER3 extracellular domain (ECD) (human, UniProt P21860 20-643); assay: BIACORE, antibody captured on protein A, HER3 ECD as analyte, 25 C, 1:1 model
T2 construct: also called human HER3 ECD; HER3 ECD full length
T2 sequence (P21860 20-643): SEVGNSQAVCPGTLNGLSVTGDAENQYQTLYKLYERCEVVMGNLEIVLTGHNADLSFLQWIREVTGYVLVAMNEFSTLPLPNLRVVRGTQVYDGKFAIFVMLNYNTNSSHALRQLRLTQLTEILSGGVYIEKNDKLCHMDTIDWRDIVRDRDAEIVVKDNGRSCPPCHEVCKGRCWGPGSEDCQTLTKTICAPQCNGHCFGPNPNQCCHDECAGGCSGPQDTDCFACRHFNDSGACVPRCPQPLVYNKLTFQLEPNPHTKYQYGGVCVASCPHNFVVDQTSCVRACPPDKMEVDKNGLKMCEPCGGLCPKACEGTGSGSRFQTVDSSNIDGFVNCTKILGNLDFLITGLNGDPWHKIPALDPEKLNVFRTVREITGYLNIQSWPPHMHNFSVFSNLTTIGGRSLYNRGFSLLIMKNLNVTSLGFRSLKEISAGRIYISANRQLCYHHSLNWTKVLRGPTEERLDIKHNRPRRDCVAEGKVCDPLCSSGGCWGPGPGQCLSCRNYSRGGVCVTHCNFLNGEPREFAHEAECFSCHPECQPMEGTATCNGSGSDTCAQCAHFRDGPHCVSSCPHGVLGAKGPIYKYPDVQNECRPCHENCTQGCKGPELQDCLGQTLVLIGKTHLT

T1 sequence (Q62799 20-643): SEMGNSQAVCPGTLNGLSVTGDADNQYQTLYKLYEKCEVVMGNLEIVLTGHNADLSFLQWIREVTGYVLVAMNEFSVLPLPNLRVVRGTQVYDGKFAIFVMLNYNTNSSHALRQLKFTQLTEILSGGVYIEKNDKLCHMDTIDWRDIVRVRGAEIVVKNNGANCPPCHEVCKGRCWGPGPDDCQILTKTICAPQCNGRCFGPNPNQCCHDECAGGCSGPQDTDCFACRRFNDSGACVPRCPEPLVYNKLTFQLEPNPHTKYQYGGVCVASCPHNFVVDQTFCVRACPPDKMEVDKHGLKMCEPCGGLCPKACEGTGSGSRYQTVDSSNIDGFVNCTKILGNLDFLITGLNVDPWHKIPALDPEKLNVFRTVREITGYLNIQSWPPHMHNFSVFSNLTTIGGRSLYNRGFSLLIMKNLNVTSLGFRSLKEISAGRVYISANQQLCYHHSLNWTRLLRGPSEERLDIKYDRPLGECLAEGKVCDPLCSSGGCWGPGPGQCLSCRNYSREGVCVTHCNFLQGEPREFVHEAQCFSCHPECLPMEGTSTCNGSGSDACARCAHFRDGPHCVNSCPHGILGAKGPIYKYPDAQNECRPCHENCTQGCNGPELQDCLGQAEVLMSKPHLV
Sequence of human HER3 receptor (P21860 20-1342 limits assumed): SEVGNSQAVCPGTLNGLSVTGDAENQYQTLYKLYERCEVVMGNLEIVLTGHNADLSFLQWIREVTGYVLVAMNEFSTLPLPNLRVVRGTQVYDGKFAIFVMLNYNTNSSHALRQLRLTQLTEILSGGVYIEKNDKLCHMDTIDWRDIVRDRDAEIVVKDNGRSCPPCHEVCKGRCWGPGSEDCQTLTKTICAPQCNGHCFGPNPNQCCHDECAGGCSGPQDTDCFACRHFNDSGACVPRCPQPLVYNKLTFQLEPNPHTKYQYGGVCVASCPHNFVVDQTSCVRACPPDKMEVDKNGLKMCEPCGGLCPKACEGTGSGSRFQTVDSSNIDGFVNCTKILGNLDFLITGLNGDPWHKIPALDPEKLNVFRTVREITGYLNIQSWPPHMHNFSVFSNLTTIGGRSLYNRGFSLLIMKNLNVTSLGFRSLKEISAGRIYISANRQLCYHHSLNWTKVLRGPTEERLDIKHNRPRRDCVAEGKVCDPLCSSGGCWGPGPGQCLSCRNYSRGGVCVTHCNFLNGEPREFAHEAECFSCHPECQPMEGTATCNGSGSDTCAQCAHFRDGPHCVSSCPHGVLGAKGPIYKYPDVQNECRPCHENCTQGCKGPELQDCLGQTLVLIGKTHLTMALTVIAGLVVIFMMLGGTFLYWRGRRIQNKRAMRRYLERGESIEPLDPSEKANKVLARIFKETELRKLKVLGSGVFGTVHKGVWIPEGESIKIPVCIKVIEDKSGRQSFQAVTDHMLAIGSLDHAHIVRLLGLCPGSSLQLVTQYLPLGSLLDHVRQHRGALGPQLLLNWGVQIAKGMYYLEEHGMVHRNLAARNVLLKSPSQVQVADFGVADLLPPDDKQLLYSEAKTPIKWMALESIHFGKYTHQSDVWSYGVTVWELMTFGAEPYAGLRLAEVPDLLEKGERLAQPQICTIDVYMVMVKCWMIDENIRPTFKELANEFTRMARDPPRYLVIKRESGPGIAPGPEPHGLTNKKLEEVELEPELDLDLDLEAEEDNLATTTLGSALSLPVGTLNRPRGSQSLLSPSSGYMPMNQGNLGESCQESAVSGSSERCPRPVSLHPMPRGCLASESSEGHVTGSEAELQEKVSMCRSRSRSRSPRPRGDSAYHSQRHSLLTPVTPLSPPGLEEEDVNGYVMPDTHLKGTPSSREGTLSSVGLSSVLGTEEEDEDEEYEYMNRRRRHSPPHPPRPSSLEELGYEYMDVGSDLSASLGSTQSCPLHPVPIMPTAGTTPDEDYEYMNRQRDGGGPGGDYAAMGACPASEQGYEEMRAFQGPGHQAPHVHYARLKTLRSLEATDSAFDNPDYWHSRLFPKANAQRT

B1: humanized 1D9 POTELLIGENT antibody (antibody, human IgG1, kappa, V domains shown)
VH: QVQLVQSGAEVKKPGASVKVSCKASGYTFTSYWMHWVRQAPGQGLEWMGVIDPSDGYSHYNQKFKGKVTLTVDTSISTAYMELSRLRSDDTAVYYCAGGLAGTLDYWGQGTTVTVSS
VL: DIQMTQSPSSLSASVGDRVTITCRSSQSIVHSSGNTYLQWFQQKPGKAPKLLIYKVSNRFSGVPSRFSGSGSGTDFTLTISSLQPEDFAVYYCFQGSHVPWTFGQGTKLEIKR
notes: also called humanized 1D9 H6L2 POTELLIGENT antibody; humanized POTELLIGENT antibody
- Phospho-HER3 ELISA IC50, heregulin induced HER3 phosphorylation, BxPC3 cells (human HER3 receptor): 0.0056 µg/mL
- Phospho-HER3 ELISA IC50, heregulin induced HER3 phosphorylation, CHL-1 cells (human HER3 receptor): 0.0282 µg/mL
- Phospho-HER3 ELISA IC50, heregulin induced HER3 phosphorylation, N87 cells (human HER3 receptor): 0.0175 µg/mL
- Phospho-HER3 ELISA IC50, heregulin induced HER3 phosphorylation, SK-BR-3 cells (human HER3 receptor): 0.0034 µg/mL
- Kd [1]: 3.37 nM
- koff [1]: 0.0011 s⁻¹
- kon [1]: 326000 M⁻¹ s⁻¹
- Kd [2]: 2.01 nM
- koff [2]: 0.00223 s⁻¹
- kon [2]: 1.11e+06 M⁻¹ s⁻¹

B2: humanized 1D9 Fc disabled antibody (antibody, V domains shown)
VH: QVQLVQSGAEVKKPGASVKVSCKASGYTFTSYWMHWVRQAPGQGLEWMGVIDPSDGYSHYNQKFKGKVTLTVDTSISTAYMELSRLRSDDTAVYYCAGGLAGTLDYWGQGTTVTVSS
VL: DIQMTQSPSSLSASVGDRVTITCRSSQSIVHSSGNTYLQWFQQKPGKAPKLLIYKVSNRFSGVPSRFSGSGSGTDFTLTISSLQPEDFAVYYCFQGSHVPWTFGQGTKLEIKR
notes: also called humanized 1D9 H6L2 Fc disabled antibody
- Phospho-HER3 ELISA IC50, heregulin induced HER3 phosphorylation, BxPC3 cells (human HER3 receptor): 0.0107 µg/mL
- Phospho-HER3 ELISA IC50, heregulin induced HER3 phosphorylation, CHL-1 cells (human HER3 receptor): 0.0399 µg/mL
- Phospho-HER3 ELISA IC50, heregulin induced HER3 phosphorylation, N87 cells (human HER3 receptor): 0.0297 µg/mL
- Phospho-HER3 ELISA IC50, heregulin induced HER3 phosphorylation, SK-BR-3 cells (human HER3 receptor): 0.0044 µg/mL
- Kd [2]: 4.49 nM
- koff [2]: 0.00122 s⁻¹
- kon [2]: 271000 M⁻¹ s⁻¹

B3: humanized 1D9 antibody (antibody, human IgG1, kappa, V domains shown)
VH: QVQLVQSGAEVKKPGASVKVSCKASGYTFTSYWMHWVRQAPGQGLEWMGVIDPSDGYSHYNQKFKGKVTLTVDTSISTAYMELSRLRSDDTAVYYCAGGLAGTLDYWGQGTTVTVSS
VL: DIQMTQSPSSLSASVGDRVTITCRSSQSIVHSSGNTYLQWFQQKPGKAPKLLIYKVSNRFSGVPSRFSGSGSGTDFTLTISSLQPEDFAVYYCFQGSHVPWTFGQGTKLEIKR
- Phospho-HER3 ELISA IC50, heregulin induced HER3 phosphorylation, BxPC3 cells (human HER3 receptor): 0.0116 µg/mL
- Phospho-HER3 ELISA IC50, heregulin induced HER3 phosphorylation, CHL-1 cells (human HER3 receptor): 0.0365 µg/mL
- Phospho-HER3 ELISA IC50, heregulin induced HER3 phosphorylation, N87 cells (human HER3 receptor): 0.0218 µg/mL
- Phospho-HER3 ELISA IC50, heregulin induced HER3 phosphorylation, SK-BR-3 cells (human HER3 receptor): 0.0036 µg/mL

B4: murine 15D5 antibody (M5.15D5.2A1.1H10) (antibody, V domains shown)
VH: EFQLQQSGPELVKPGASVKISCKASGYSFTDYNMNWVKQNNGKSLEWIGGINPNYGTTVYNQKFKGKATLTVDQSSSTAYMQLVSLTSEDSAVYYCARMTTIVPFDYWGQGTTLTVSS
VL: DIQMTQTTFSLSASLGDRVTISCRASQDISNYLNWYQQKPDGTVKLLIYYTSTLHSGVPSRFSGSGSGTDYFLTIRNLEEEDIATYFCQQGYTLPWTFGGGTKLDIK
- Phospho-HER3 ELISA IC50, heregulin induced HER3 phosphorylation, BT-474 cells (human HER3 receptor): 0.12 µg/mL
- Phospho-HER3 ELISA IC50, heregulin induced HER3 phosphorylation, BxPC3 cells (human HER3 receptor): 0.0541 µg/mL
- Phospho-HER3 ELISA IC50, heregulin induced HER3 phosphorylation, CHL-1 cells (human HER3 receptor): 0.138 µg/mL
- Phospho-HER3 ELISA IC50, heregulin induced HER3 phosphorylation, MCF7 cells (human HER3 receptor): 0.0593 µg/mL
- Phospho-HER3 ELISA IC50, heregulin induced HER3 phosphorylation, N87 cells (human HER3 receptor): 0.0533 µg/mL
- Phospho-HER3 ELISA IC50, heregulin induced HER3 phosphorylation, SK-BR-3 cells (human HER3 receptor): 0.0191 µg/mL

B5: murine 1D9 antibody (M5.1D9.1F5) (antibody, V domains shown)
VH: QVQLQQPGAELVRPGTSVKLSCKASGYTFTSYWMHWVKQRPGQGLEWIGVIDPSDGYSHYNQKFKGKATLTVDTSSSTAYMQLSSLTSEDSAVYYCAGGLAGTLDYWGQGTTLTVSS
VL: DVLMTQTPLSLPVSLGDQASISCRSSQSIVHSSGNTYLQWFLQKPGQSPKLLISKVSNRFSGVPDRFSGSGSGTDFTLRISRVEAEDLGLYYCFQGSHVPWTFGGGTKLEIK
- IC50, ligand (EGF, betacellulin or heregulin) induced HER3 receptor phosphorylation, SK-BR-3 cells (human HER3 receptor): ~0.003 µg/mL
- Phospho-HER3 ELISA IC50, heregulin induced HER3 phosphorylation, BT-474 cells (human HER3 receptor): 0.0223 µg/mL
- Phospho-HER3 ELISA IC50, heregulin induced HER3 phosphorylation, BxPC3 cells (human HER3 receptor): 0.0068 µg/mL
- Phospho-HER3 ELISA IC50, heregulin induced HER3 phosphorylation, CHL-1 cells (human HER3 receptor): 0.0406 µg/mL
- Phospho-HER3 ELISA IC50, heregulin induced HER3 phosphorylation, MCF7 cells (human HER3 receptor): 0.0104 µg/mL
- Phospho-HER3 ELISA IC50, heregulin induced HER3 phosphorylation, N87 cells (human HER3 receptor): 0.0204 µg/mL
- Phospho-HER3 ELISA IC50, heregulin induced HER3 phosphorylation, SK-BR-3 cells (human HER3 receptor): 0.0032 µg/mL
